For this experiment, the target named is SARS-CoV-2 Spike (RBD)-Fc (SARS-CoV-2, UniProt P0DTC2). Description: ELISA. For orientation: ELISA stands for enzyme-linked immunosorbent assay.

B1: wild type Spike S1-Interacting Domain of ACE2 Receptor (SPIDAR) peptide (peptide)
peptide: EDLFYQ
Regarding B1, the binding result is “binds”.

(Values after paper PMC8664124 (Journal of immunology (Baltimore, Md. : 1950), 2021).)
